Earlier results on 3 substances are cited in PMC3012091, “The Concentration of Soluble Extracellular Amyloid-β Protein in Acute Brain Slices from CRND8 Mice” (PLoS ONE, 2010).

The subject of data set [1] is long-term potentiation (LTP). The settings on record: 50–200 pM Aβ applied to acute hippocampal slices. From the text:
At these concentrations Aβ affects long-term potentiation (LTP) when applied to acute hippocampal slices.

For data set [2] the following is noted: human CNS. The text has this: Constant turn-over of Aβ was included in some model calculations by adjusting the concentrations of Aβ at every location within the tissue after each iterative step of the model.
The conditions of data set [3]: APP overexpressing mice. From the text: Constant turn-over of Aβ was included in some model calculations by adjusting the concentrations of Aβ at every location within the tissue after each iterative step of the model. […] E ... || The half-life of Aβ in the model is a more likely source of inaccuracy as the half-lives of Aβ species are less clear from the literature. There are few published half-life measurements from APP overexpressing mice.

[4] abbreviates: postmortem extraction of Aβ from brain tissue.

Like-named read-outs stand apart in the source and are kept apart here.

Amyloid-β protein [Aβ]: the “effect on LTP” value in data set [1] was “both inhibition and enhancement”. Further, the “half-life of Aβ” value in data set [2] was 8 to 9 h. Further, in data set [3] (in vivo dialysis), the half-life is 4 h.

Take “Aβ1–42: endogenous soluble extracellular amyloid-β protein 1–42 of CRND8 mice, measured by human beta amyloid(1–42) ELISA”: the half-life in data set [3] (setting [4]) is no more than 1.7 h.

“Aβ1–40: amyloid-β protein 1–40, literature half-life only”: in data set [3] (setting [4]), the half-life is no more than 0.7 h.

Broadly, the half-life is how long it takes for the measured level to halve.
